According to paper PMC8876628 (Toxins, 2022):

Target: Tetanus neurotoxin (Clostridium tetani, UniProt P04958)
Assay: cryo-EM structure; epitopes of TT104 and TT110 on TeNT determined via cryo-EM
Details: both partners purified

Tetanus neurotoxin, sequence (P04958 whole entry): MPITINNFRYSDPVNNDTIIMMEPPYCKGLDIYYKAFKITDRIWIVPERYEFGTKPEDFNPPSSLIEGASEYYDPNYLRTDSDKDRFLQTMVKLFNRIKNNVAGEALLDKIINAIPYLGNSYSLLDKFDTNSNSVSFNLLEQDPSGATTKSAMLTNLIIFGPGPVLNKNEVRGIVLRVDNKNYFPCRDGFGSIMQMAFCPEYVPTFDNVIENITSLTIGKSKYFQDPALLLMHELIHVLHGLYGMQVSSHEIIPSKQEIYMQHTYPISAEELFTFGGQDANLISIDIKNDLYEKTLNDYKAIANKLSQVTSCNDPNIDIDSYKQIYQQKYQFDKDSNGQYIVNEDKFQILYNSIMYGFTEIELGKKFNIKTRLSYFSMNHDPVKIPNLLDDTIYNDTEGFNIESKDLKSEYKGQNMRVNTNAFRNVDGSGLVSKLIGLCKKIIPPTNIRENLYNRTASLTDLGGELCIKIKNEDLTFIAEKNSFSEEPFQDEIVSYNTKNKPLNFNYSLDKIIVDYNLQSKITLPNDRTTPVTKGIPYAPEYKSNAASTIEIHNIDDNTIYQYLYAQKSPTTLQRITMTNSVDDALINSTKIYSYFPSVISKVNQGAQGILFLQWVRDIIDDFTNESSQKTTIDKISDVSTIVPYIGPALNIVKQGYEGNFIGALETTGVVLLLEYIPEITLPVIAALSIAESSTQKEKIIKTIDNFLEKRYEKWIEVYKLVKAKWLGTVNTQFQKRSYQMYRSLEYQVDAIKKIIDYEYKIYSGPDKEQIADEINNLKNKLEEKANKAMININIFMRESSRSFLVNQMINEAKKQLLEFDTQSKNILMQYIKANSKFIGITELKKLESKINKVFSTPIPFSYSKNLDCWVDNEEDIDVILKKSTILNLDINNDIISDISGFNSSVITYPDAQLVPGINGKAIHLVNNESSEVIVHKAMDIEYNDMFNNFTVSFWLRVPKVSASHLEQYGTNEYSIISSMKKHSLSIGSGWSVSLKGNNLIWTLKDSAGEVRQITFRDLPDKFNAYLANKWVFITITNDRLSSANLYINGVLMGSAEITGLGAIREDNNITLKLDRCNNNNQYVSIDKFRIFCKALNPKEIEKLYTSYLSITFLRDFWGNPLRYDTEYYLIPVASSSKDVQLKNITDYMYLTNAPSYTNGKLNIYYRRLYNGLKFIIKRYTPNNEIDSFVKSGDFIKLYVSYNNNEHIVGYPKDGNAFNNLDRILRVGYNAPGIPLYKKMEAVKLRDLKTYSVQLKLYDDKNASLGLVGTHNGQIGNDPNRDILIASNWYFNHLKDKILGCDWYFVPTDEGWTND

B1: TT104 human monoclonal antibody (antibody, V domains shown)
VH: QLQLQESGPGLVRPSETLSLTCSVSDDSMGSSTYYWAWIRQPPGKGLEWIGNVYYNGVTYYNSSLESRLTLSIDPSKNQFSLILSSVTAADTAVYYCARQADNWFDPWGQGTLVTVSS
VL: EIMMTQSPATLSVSPGERATLSCRASQSVGSDLAWYQQKPGQAPRLLIYGASYRATGIPARFSGGGSGTEFTLTISSMQSEDFAVYYCQQYYNWPPYTFGQGTKVEIK
notes: also called humAb TT104
- binding result: binds

B2: TT110 human monoclonal antibody (antibody, V domains shown)
VH: QVQLMQSGAEVQKPGASVKVSCQASGFTLNNYYIHWLRQAPGQGFEWMGIFNPSSGTRTYAQKFQGRISMTADASTTTLYMELSGLTSEDAGVYFCARIGGSTYGRLMTYYFDHWGQGTVVAVSS
VL: EVVLTQSPVTLSVSPGGRGTLSCRASRSISTTLAWYQQKPGQAPRLLIYGASTRATGIPARFTGSGSGTEFTLTISSLQSEDFAVYYCQQYNDWPVTFGQGTQVEVK
notes: also called humAb TT110
- binding result: binds
